From paper PMC4513881

What was measured:
[1] = target: T1, DCL1-A (first dsRBD) (Arabidopsis thaliana) (UniProt Q9SP32); assay: fluorescence anisotropy; conditions: FA: 10 mM phosphate pH 7.0, 50 nM labeled nucleic acid, temperature not stated; CD: 10 mM phosphate pH 7; NMR complex: 20 mM phosphate pH 7.0, 5 mM TCEP
T1 sequence: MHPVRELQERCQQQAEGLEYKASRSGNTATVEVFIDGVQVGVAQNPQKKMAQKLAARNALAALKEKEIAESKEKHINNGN

[2] = target: T2, DCL1-AB (both dsRBDs) (Arabidopsis thaliana) (UniProt Q9SP32); assay: fluorescence anisotropy; conditions: FA: 10 mM phosphate pH 7.0, 50 nM labeled nucleic acid, temperature not stated; CD: 10 mM phosphate pH 7; NMR complex: 20 mM phosphate pH 7.0, 5 mM TCEP
T2 sequence: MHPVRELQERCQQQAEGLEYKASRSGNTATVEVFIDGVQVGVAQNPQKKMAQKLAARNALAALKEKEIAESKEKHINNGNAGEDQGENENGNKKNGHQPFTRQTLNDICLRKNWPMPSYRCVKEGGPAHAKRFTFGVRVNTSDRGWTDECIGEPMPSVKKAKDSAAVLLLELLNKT

| Substance | Kd [1] [nM] | Kd [2] [nM] |
| --- | --- | --- |
| dsDNA | 860 | 680 |
| miR172a stem-loop (miRNA/miRNA* region) | 723 | 67 |
